From PMC3589125 (Structure (London, England : 1993), 2012) come the findings set out here.

Series [1] deals with T1, JNK3α1 (Homo sapiens, UniProt P53779). As to the kind of experiment: FRET displacement of labeled JIP1 peptide, JNK3α1. Particulars: FRET IC50 for displacement of labeled JIP1 peptide, Inactive JNK3α1. The series is classed as binding.
A further series concerns the target active JNK3α1 (39–422) (UniProt P53779).
Series [2] has as its target T1, JNK3α1. As to the kind of experiment: Km of protein substrates for JNK3α1. The class given is biochemical. To be noted: read-out: Km for JNK3α1; protein substrate.
A further series concerns the target JNK3α1 (39–422) (UniProt P53779-2 39-422). Description: ITC.
The next series has as its target Inactive JNK1β1 (UniProt P45983-3 1-384). As to the kind of experiment: FRET or BRET. Background: BRET reads energy transfer from a luciferase to a nearby fluorophore.
In the next series the target is Active JNK1β1 (UniProt P45983-3 1-384, phosphorylated in the activation loop by incubation with active MKK4 and MKK7). As to the kind of experiment: FRET or BRET.
The next series has as its target Inactive JNK3α1, P53779. As to the kind of experiment: FRET or BRET.

Peptide text beside a SMILES is read from it.

What is called IC50 is the concentration that gives 50% inhibition. Low values mean greater potency in that assay, high ones weaker potency in that assay. Take `CC(C)C[C@H](NC(=O)[C@H](CO)NC(=O)CNC(=O)[C@@H]1CCCN1C(=O)[C@H](CCCNC(=N)N)NC(=O)[C@@H](NC(=O)[C@@H](NC(=O)[C@H](C)N)C(C)C)C(C)C)C(=O)N[C@@H](CC(=O)O)C(=O)N[C@@H](CC(C)C)C(=O)N1CCC[C@H]1C(=O)O` [pepSAB] (H-AVVRPGSLDLP-OH): the IC50 on JNK3α1 [1] was 834 ± 105 µM.
For `CC(C)C[C@H](NC(=O)[C@H](CC(N)=O)NC(=O)[C@H](CC(C)C)NC(=O)[C@@H](NC(=O)[C@@H](NC(=O)[C@@H]1CCCN1C(=O)[C@H](CCCN=C(N)N)NC(=O)[C@H](CCCCN)NC(=O)[C@@H]1CCCN1C(=O)[C@@H](N)CCCN=C(N)N)[C@@H](C)O)[C@@H](C)O)C(=O)N[C@@H](Cc1ccccc1)C(=O)O` [pepJIP] (H-RPKRPTTLNLF-OH), on JNK3α1 [1], the IC50 was found to be 1.7 ± 0.4 µM.

B1: His-SAB (1–390) (domain or fragment)
chain: MDAALKRSRSEEPAEILPPARDEEEEEEEGMEQGLEEEEEVDPRIQGELEKLNQSTDDINRRETELEDARQKFRSVLVEATVKLDELVKKIGKAVEDSKPYWEARRVARQAQLEAQKATQDFQRATEVLRAAKETISLAEQRLLEDDKRQFDSAWQEMLNHATQRVMEAEQTKTRSELVHKETAARYNAAMGRMRQLEKKLKRAINKSKPYFELKAKYYVQLEQLKKTVDDLQAKLTLAKGEYKMALKNLEMISDEIHERRRSSAMGPRGCGVGAEGSSTSVEDLPGSKPEPDAISVASEAFEDDSCSNFVSEDDSETQSVSSFSSGPTSPSEMPDQFPAVVRPGSLDLPSPVSLSEFGMMFPVLGPRSECSGASSPECEVERGDRAEGA
With B1, the Km of SAB (1–390) as substrate of JNK3α1 with active JNK3α1 (39–422) was found to be 0.77 µM.

B2: SAB (1–390): recombinant SAB protein substrate for JNK kinase assays (protein)
chain: B1 chain
modifications: left off: His, end not stated, kept
What is called Km is the concentration of substrate that gives half-maximal velocity. For the molecule B2, the Km with JNK3α1 [2] amounted to 770 ± 90 nM.
By Kd is commonly meant a measure of binding affinity in units of concentration. Higher therefore signals a looser complex. RPKRPTTLNLF [pepJIPhu(157–167)] showed a Kd in the series with JNK3α1 (39–422) of 0.8 ± 0.1 µM. For the same molecule, the dH with JNK3α1 (39–422) was -7650 cal/mol. The IC50 is 2.5 ± 0.1 µM in the series with Inactive JNK1β1; 0.68 ± 0.02 µM in the series with Active JNK1β1; 1.7 µM with Inactive JNK3α1, P53779.
Regarding RPKHPTTLNLF [JIP1 R160H], in the series with JNK3α1 (39–422), binding was put at a Kd of 11.7 ± 1 µM and the dH is -6710 cal/mol.
In the series with JNK3α1 (39–422), RPKRPGTLNLF [JIP1 T162G] registered a Kd of 4.9 ± 0.5 µM and a dH of -7110 cal/mol.
On to RPKQPTTLNLF [JIP1 R160Q], for which, in the series with JNK3α1 (39–422), the Kd turned out to be 32.1 ± 3.2 µM and the dH was -5460 cal/mol.
Turning to KHKHEMTLKFG [pepATF2Hu(46–56)], the IC50 with Inactive JNK1β1 is 350 ± 12 µM; with Active JNK1β1, 169 ± 2 µM.
Consider AVVRPGSLDLP [pepSABhu(40–350)], for which the Kd with JNK3α1 (39–422) was 17.2 ± 0.6 µM. In the series with JNK3α1 (39–422), this molecule had a dH of -4020 cal/mol. The IC50 amounted to 612 ± 21 µM in the series with Inactive JNK1β1; 386 ± 10 µM in the series with Active JNK1β1; 834 µM with Inactive JNK3α1, P53779.
